Several values for one entry are separate records, joined by “and”; a condition that tells them apart may be missing. Identical values can stand only once.
Legend:
[1] = In vivo toxicity in athymic nude mice; design: species or system mouse
Procedure: FIGS. 6A to 6C show the toxicity of Zt/g4-DM1 in vivo. Body weight was measured every four days during the period of Zt/g4-DM1 treatment. FIG. 6A: Effect of multiple doses of Zt/g4-DM1 on mouse body weight was determined by administration of Zt/g4-DM1 at 1, 3, 7, 10, 15 mg/kg every four day with a total of 5 injections. Mice were weighed and monitored for a total of 31 days. FIG. 6B: Effect of a single dose of Zt/g4 at 20 mg/kg on mouse body weight was determined using mice bearing HT29, HCT116, or SW620-derived tumors. Body weight was monitored up to 28 days. FIG. 6C: Effect of high doses of Zt/G4-DM1 on mouse body weight was analyzed by tail vein injection at 20, 40 and 60 mg/kg to Balb/c mice. Mice were euthanized at day 21. In all cases, the average body weight of mice before Zt/g4-DM1 injection was 19.8±3.6 grams (5 mice per group) and set as 100%;
In vivo toxicity studies: Acute toxicity with maximum tolerated dose was determined in Balb/C mice (four mice per dose) by a single tail vein injection of Zt/g4-DM1 at 20, 40, and 60 mg/kg body weight. Toxicity associated with different therapeutic doses was evaluated in athymic nude mice bearing HT29 tumor xenograft (five mice per dose). […] Toxicity was assessed by observing mouse behavior, weight loss, and survival.
Toxic effect of Zt/g4-DM1 on mice. Three studies using two different types of mice were performed to study Zt/g4-DM1 on animal behavior and body weight. The first study addressed the impact of multi-doses of Zt/g4-DM1. Athymic nude mice were injected five times with 1, 3, 5, 7, 10, 15 mg/kg of Zt/g4-DM1 and monitored every four days for a total period of 31 days. […] The second study observed the effect of a single dose of Zt/g4-DM1 at 20 mg/kg in nude mice bearing tumors derived from HT29, HCT116, and SW620 cells. […] The third study involved a single-dose injection of Zt/g4-DM1 at 20, 40, and 60 mg/kg in Balb/c mice monitored for 24 days (FIG. 6C). […] Also, a moderate reduction of about 6% body weight was observed within the first four days after 60 mg/kg Zt/g4-DM1 injection. […]

[2] = Stability of Zt/g4-DM1 at 37° C. by HIC (DAR); format: physicochemical
Description: FIGS. 1A to 1C show the generation and characterization of anti-RON ADC Zt/g4-DM1. FIG. 1A: Schematic representation of Zt/g4-DM1 structure: Zt/g4 is a mouse mAb specific to the RON sema domain (18). DM1 was conjugated to Zt/g4 by non-reducible thioether linkage (SMCC) through lysine residues in the antibody molecule. FIG. 1B: HIC analysis of the number of DM1 conjugated to Zt/g4: Individual Zt/g4-DM1s with different numbers of DM1 (0 to 8) are marked as P0 to P8. FIG. 1C: Stability of Zt/g4-DM1. Zt/g4-DM1 was kept at 37° C. for 30 days. Samples analyzed at different time-points with the average DARs were shown;
Analysis of Zt/g4-DM1 conjugation and its stability: The conjugation of DM1 to Zt/g4 was verified by hydrophobic interaction chromatography (HIC) using a Varian Prostar 210 Quaternary HPLC system coupled with a TSK butyl-NPR 4.6×3.5 column (Tosoh Biosciences (Prussia, Pa.) (31). The average DARs were calculated from the integrated areas of the DAR species. This method also was used to determine the stability of Zt/g4-DM1 at 37° C.
The stability of Zt/g4-DM1 was determined by incubating the conjugates in vitro at 37° C. for 30 days. DAR changes were measured by HIC from different time-points.

[3] = five injections of 1, 3, 5, 7, 10, 15 mg/kg, 31 days

B1: Zt/g4-DM1: anti-RON mouse mAb Zt/g4 conjugated to maytansinoid DM1 via non-reducible thioether linkage (SMCC), DAR about 4:1 (conjugate)
VH: EVQLQQSGAELVKPGASVKLSCTTSGFNIIDTYIHWVNQKPDQGLEWIGRIDPADGNRKSDPKFQVKATITVDTSSNTAYLQLSSLTSGDTAVYYCARGYGNLNAMDSWGQGTSVTVSS
VL: DIQMNQSPSSLSASLGDTITITCHASQNINVWLNWYQQKPGNIPKLLIYKASNLHTGVPSRFSGSGSGTGFTLTISSLQPEDIATYYCQQGQSYPLTFGGGTKLEIK
In the case of B1, the average body weight [1, 3] is reported as “comparable to that of control mice with no differences”, the mouse behavior [1, 3] is reported as “behaved normally” and the “behavior and body weight” value ([1]; single dose 20 mg/kg, tumor-bearing nude mice) is reported as “No changes in behavior or body weight were observed”. For the same molecule, the “time stable at 37° C.” value [2] was “up to 30 days”, the “peak 5 share of conjugates at day 30” value ([2]; 25.39% at day 0) was 20.06% and the “peak 4 share of conjugates at day 30” value ([2]; 39.05% at day 0) was 32.72%. For the same molecule, the “reduction in DAR after 30 days” value ([2]; day 30 vs day 0) was 6.4% and 6.5% and the “average DAR at day 30” value ([2]; in vitro, HIC) was 3.484.

Reference: patent publication US20160311918A1, “Anti-Ron Monoclonal Antibodies as a Cytotoxic Drug Delivery System for Targeted Cancer Therapy” (TEXAS TECH UNIVERSITY SYSTEM, priority 2013, published 2016)
